Assay results published in US20250051435A1 (INVETX, published 2025).

T1: feline IL-5 (Kingfisher Biotech; RP1152F) (feline, UniProt O77515 20-134)
T1 construct: Bought recombinant protein; also called fIL-5; fIL5
T1 sequence (looked up): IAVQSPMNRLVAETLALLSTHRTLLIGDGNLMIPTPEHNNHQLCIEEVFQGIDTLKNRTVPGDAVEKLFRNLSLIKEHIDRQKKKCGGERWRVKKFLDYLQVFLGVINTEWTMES


Target: T1, feline IL-5 (Kingfisher Biotech; …)
Assay: ELISA, Fab culture supernatant on plate-coated feline IL-5, anti-feline Fab'2-HRP detection
Description: Fragments containing the pre-selected CDR pools from these libraries were randomly paired by overlap PCR to create a new library incorporating mutations throughout all targeted CDRs. The phage propagated following round 4 of selection were used for PCR amplication of LCDR2, LCDR3 and HCDR3. The PCR-amplified fragment containing the light chain and the heavy chain were ligated into a phagemid vector and transformed into E. coli. The number of transformants was approximately 2E+10. Library plasmid DNA was purified using a midi-prep purification method. Ten pg of the library plasmid DNA was transformed into E. coli for growth and propagation of the Fab phage. After overnight phage production, phage was precipitated from the culture supernatant and resuspended in blocking buffer (1% BSA/PBS). The phage were treated at 58° C. for 10 minutes to remove unstable clones prior to the selections. The input phage was incubated for 30 minutes in a blocked ELISA plate coated with feline IL-5. The ELISA plate was washed with PBS, pH 7.4 followed by acid elution of the bound phage. The output phage was then used to infect E. coli for propagation for the next round of selection. For rounds 1, 2, 3 and 4, the ELISA plates were coated with 10 μg/ml, 8 μg/ml, 5 μg/ml and 1 μg/ml, respectively. The number of washes after each round were 3, 5, 10 and 10 for rounds 1, 2, 3 and 4, respectively. Ninety-three clones from the round 4 output were grown overnight for Fab production and tested for binding to feline IL-5 in an ELISA format. For this assay, supernatants from the overnight cultures were incubated in Immulon 4 HBX high-binding plate that was coated with 10 μg/ml feline IL-5 (Kingfisher Biotech; Cat #RP1152F) and blocked with 1% bovine serum albumin in phosphate buffered saline (PBS), pH 7.4. The controls added included the MtxB clone and clone 1H3-C6 which was the top affinity clone from the first stage A1 step. The Fab binding to the feline IL-5 was detected with anti-feline Fab′₂-HRP conjugate.
The results are shown in Table 8A which compares relative Fab binding affinity to feline IL-5 by Fabs disclosed herein. IL-5 binding was detected with anti-feline Fab′₂-HRP conjugate. Differences in CDR amino acids compared to the MtxB are underlined. The data in the last column are absorbance following addition of substrate to detect the HRP conjugate.

| fIL5 Fab (ELISA absorbance) [absorbance] | Binder |
| --- | --- |
| 1.28 | LxH3-D3 Fab (affinity matured MtxB) (Fab, V domains shown, Fab from the Stage B library on MtxB; the entries named are the parent, the changed regions are told under detail) VH: DVQLVESGGDLVKPGGSLRLTCVGSGFTFSNYAMSWVRQAPGEGLQWVATIGSGGHYTYHPDSVKGRFTISRDNAKNTLYLQMNSLQTEDTASYYCTRETDGYGPILDWGQGTLVTVSS VL: DIVMTQTPLSLSVTPGEPASISCRASQSISDYLYWYLQKPGQSPRLLFNVLSQRSSGVPDRFSGSGSGTDFTLRISRVEADDVGVYYCQQGLVFPYTFGPGTKLEIK |
| 1.13 | LxH3-D9 Fab (affinity matured MtxB) (Fab, V domains shown, Fab from the Stage B library on MtxB; the entries named are the parent, the changed regions are told under detail) VH: DVQLVESGGDLVKPGGSLRLTCVGSGFTFSNYAMSWVRQAPGEGLQWVATIGSGGHYTYHPDSVKGRFTISRDNAKNTLYLQMNSLQTEDTASYYCTRETDGYGPILDWGQGTLVTVSS VL: DIVMTQTPLSLSVTPGEPASISCRASQSISDYLYWYLQKPGQSPRLIINYGSVLLSGVPDRFSGSGSGTDFTLRISRVEADDVGVYYCQQGLLFPYTFGPGTKLEIKR |
| 0.722 | LxH3-A9 Fab (affinity matured MtxB) (Fab, V domains shown, Fab from the Stage B library on MtxB; the entries named are the parent, the changed regions are told under detail) VH: DVQLVESGGDLVKPGGSLRLTCVGSGFTFSNYAMSWVRQAPGEGLQWVATIGSGGHYTYHPDSVKGRFTISRDNAKNTLYLQMNSLQTEDTASYYCTRETDGYGPLDLWGQGTLVTVSS VL: DIVMTQTPLSLSVTPGEPASISCRASQSISDYLYWYLQKPGQSPRRIIFTGSQRNSGVPDRFSGSGSGTDFTLRISRVEADDVGVYYCQQGMVFPYTFGPGTKLEIKR |
| 0.708 | LxH3-D6 Fab (affinity matured MtxB) (Fab, V domains shown, Fab from the Stage B library on MtxB; the entries named are the parent, the changed regions are told under detail) VH: DVQLVESGGDLVKPGGSLRLTCVGSGFTFSNYAMSWVRQAPGEGLQWVATIGSGGHYTYHPDSVKGRFTISRDNAKNTLYLQMNSLQTEDTASYYCTRETDGYGPILDWGQGTLVTVSS VL: DIVMTQTPLSLSVTPGEPASISCRASQSISDYLYWYLQKPGQSPRRVIYTGSQRSSGVPDRFSGSGSGTDFTLRISRVEADDVGVYYCQQGLVFPYTFGPGTKLEIKR |
| 1.01 | LxH3-D1 Fab (affinity matured MtxB) (Fab, V domains shown, Fab from the Stage B library on MtxB; the entries named are the parent, the changed regions are told under detail) VH: DVQLVESGGDLVKPGGSLRLTCVGSGFTFSNYAMSWVRQAPGEGLQWVATIGSGGHYTYHPDSVKGRFTISRDNAKNTLYLQMNSLQTEDTASYYCTRETDGYGPILDWGQGTLVTVSS VL: DIVMTQTPLSLSVTPGEPASISCRASQSISDYLYWYLQKPGQSPRRLIYFGSVRSSGVPDRFSGSGSGTDFTLRISRVEADDVGVYYCQQGLQFPYTFGPGTKLEIKR |
| 0.702 | LxH3-B10 Fab (affinity matured MtxB) (Fab, V domains shown, Fab from the Stage B library on MtxB; the entries named are the parent, the changed regions are told under detail) VH: DVQLVESGGDLVKPGGSLRLTCVGSGFTFSNYAMSWVRQAPGEGLQWVATIGSGGHYTYHPDSVKGRFTISRDNAKNTLYLQMNSLQTEDTASYYCTRETDGYGPILDWGQGTLVTVSS VL: DIVMTQTPLSLSVTPGEPASISCRASQSISDYLYWYLQKPGQSPRRLIFTGSQRASGVPDRFSGSGSGTDFTLRISRVEADDVGVYYCQQGVRFPYTFGPGTKLEIKR |
| 1.16 | LxH3-F3 Fab (affinity matured MtxB) (Fab, V domains shown, Fab from the Stage B library on MtxB; the entries named are the parent, the changed regions are told under detail) VH: DVQLVESGGDLVKPGGSLRLTCVGSGFTFSNYAMSWVRQAPGEGLQWVATIGSGGHYTYHPDSVKGRFTISRDNAKNTLYLQMNSLQTEDTASYYCTRETDGYGPLDLWGQGTLVTVSS VL: DIVMTQTPLSLSVTPGEPASISCRASQSISDYLYWYLQKPGQSPRLLFNSVSPTRSGVPDRFSGSGSGTDFTLRISRVEADDVGVYYCQQGVVFPYTFGPGTKLEIK |
| 0.972 | LxH3-B6 Fab (affinity matured MtxB) (Fab, V domains shown, Fab from the Stage B library on MtxB; the entries named are the parent, the changed regions are told under detail) VH: DVQLVESGGDLVKPGGSLRLTCVGSGFTFSNYAMSWVRQAPGEGLQWVATIGSGGHYTYHPDSVKGRFTISRDNAKNTLYLQMNSLQTEDTASYYCTRETDGYGPILDWGQGTLVTVSS VL: DIVMTQTPLSLSVTPGEPASISCRASQSISDYLYWYLQKPGQSPRLIFNPLSVRRSGVPDRFSGSGSGTDFTLRISRVEADDVGVYYCQQGMVFPYTFGPGTKLEIKR |
